Source: patent US20260176378A1 (DYAX, published 2026)

B1: M27-E05 (Fab, V domains shown)
VH: EVQLLESGGGLVQPGGSLRLSCAASGFTFSWYLMIWVRQAPGKGLEWVSYIYPSGGFTYYADSVKGRFTISRDNSKNTLYLQMNSLRAEDMAVYYCARTEGPLSWGYGMDVWGQGTTVTVSS
VL: not shown
B2: M137-E12 (Fab, V domains shown)
VH: EVQLLESGGGLVQPGGSLRLSCAASGFTFSDYRMQWVRQAPGKGLEWVSVIVPSGGNTMYADSVKGRFTISRDNSKNTLYLQMNSLRAEDTAVYYCARGGPGSSIAARRAPTGYYGMDVWGQGTTVTVSS
VL: QSVLIQPPSVSGIPGQRVTISCSGNNSNFGSNTVTWYQQLPGTAPKLLIYSDSRRPSGVPDRFSGSRSDTSASLAISGLQSEDEAEYHCAAWDDSLNGVFGGGTKLTVL
B3: M76-D01 (Fab, V domains shown)
VH: EVQLLESGGGLVQPGGSLRLSCAASGFTFSFYAMHWVRQAPGKGLEWVSGIVPSGGRTHYADSVKGRFTISRDNSKNTLYLQMNSLRAEDTAVYYCATDSSGSPNPLFDYWGQGTLVTVSS
VL: DIVMTQTPPSLPVNPGEPASISCRSSQSLSDDGNTYLDWYLQRPGQSPQLLIHTLSYRASGVPDRFSGSGSGTDFTLKISRVEAEDVGVYYCMQGTHWPPTFGQGTKVEIK
B4: M38-F02 (Fab, V domains shown)
VH: EVQLLESGGGLVQPGGSLRLSCAASGFTFSYYMMVWVRQAPGKGLEWVSYIYSSGGHTVYADSVKGRFTISRDNSKNTLYLQMNSLRAEDTAVYYCARDLFLYDFWSKGAFDIWGQGTMVTVSS
VL: QSVLTQPPSVSVSPGQTASITCSGEKLGDKYVSWYQQKPGQSPSLVICEDSRRPSGIPERFSGSNSGNTATLTISGAQPMDEADYYCQAWDSSTAIFGPGTKVTVL
B5: M110-C12 (Fab, V domains shown)
VH: EVQLLESGGGLVQPGGSLRLSCAASGFTFSYYEMDWVRQAPGKGLEWVSGISSSGGHTAYADSVKGRFTISRDNSKNTLYLQMNSLRAEDTATYYCARERRSSSRARYYYGMDVWGQGTTVTVSS
VL: DIQMTQSPLSLSVTPGEPASISCRSSLSLLHSNGYNYLDWYVQRPGQSPQLLMYLSSTRASGVPDRFSGSGSGTDFTLEISRVEAEDVGVYYCMQPLETPPTFGGGTKVEIK
B6: M35-G04 (Fab, V domains shown)
VH: EVQLLESGGGLVQPGGSLRLSCAASGFTFSYYHMSWVRQAPGKGLEWVSVISPSGGSTKYADSVKGRFTISRDNSKNTLYLQMNSLRAEDTAVYYCARGGSSDYAWGSYRRPYYFDYWGQGTLVTVSS
VL: DIQMTQSPATLSLSPGERATLSCRASQSVSSYLAWYQQKPGQAPRLLIYDASNRATGIPARFSGSGSGTDFTLTISSLEPEDFAVYYCQQRSNWPRGFTFGPGTKVDIK
notes: also called 559A-M35-G04; 559A-M0035-G04
B7: M145-D01 (Fab, V domains shown)
VH: EVQLLESGGGLVQPGGSLRLSCAASGFTFSYYHMSWVRQAPGKGLEWVSVISPSGGSTKYADSVKGRFTISRDNSKNTLYLQMNSLRAEDTAVYYCARGGSSDYAWGSYRRPYYFDYWGQGTLVTVSS
VL: DIQMTQSPATLSLSPGERATLSCRASQSVSSYLAWYQQKPGQAPRLLIYDASNRATGIPARFSGSGSGTDFTLTISSLEPEDFAVYYCQQRSNWPRGFTFGPGTKVDIK
B8: M29-D09 (Fab, V domains shown)
VH: EVQLLESGGGLVQPGGSLRLSCAASGFTFSWYTMVWVRQAPGKGLEWVSYIYPSGGATFYADSVKGRFTISRDNSKNTLYLQMNSLRAEDTAVYYCAMGSYDYIWGFYSDHWGQGTLVTVSS
VL: QSALTQPPTVSVSPGQTARITCSGNKLGDKYVAWYQQKPGQSPMLVIYQDTKRPSRVSERFSGSNSANTATLSISGTQALDEADYYCQAWDSSIVIFGGGTRLTVL
notes: also called 559A-M29-D09 (sFab); 559A-M0029-D09
B9: M152-A12 (Fab, V domains shown)
VH: EVQLLESGGGLVQPGGSLRLSCAASGFTFSPYFMGWVRQAPGKGLEWVSGIGPSGGSTTYADSVKGRFTISRDNSKNTLYLQMNSLRAEDTAVYYCAREGPPYSSGWYRGLRQYHFDYWGQGTLVTVSS
VL: DIQMTQSPSSLSASVGDRVTITCRASQSISSYLSWYQQRPGKAPNLLIYAASSLQSGVPSRFSGSGSGTDFTLTISSLQPEDFATYYCQQSISIPRTFGQGTKVEVK
B10: M73-D06 (Fab, V domains shown)
VH: EVQLLESGGGLVQPGGSLRLSCAASGFTFSRYEMYWVRQAPGKGLEWVSSISSSGGPTAYADSVKGRFTISRDNSKNTLYLQMNSLRAEDTAMYYCAKGTPKWELLLRSIYIENAFDIWGQGTMVTVSS
VL: QSELTQPPSASETPGQRVTISCSGSSSNIGSNTVSWFQQLPGSAPRLLIYNDHRRPSGVPDRFSGSKSGTSASLVISGLQSQDEADYYCSAWDDSLNGVVFGGGTKLTVL
B11: M142-H08 (antibody, V domains shown)
VH: EVQLLESGGGLVQPGGSLRLSCAASGFTFSAYSMIWVRQAPGKGLEWVSYIRPSGGRTTYADSVKGRFTISRDNSKNTLYLQMNSLRAEDTAVYYCARGGLLLWFRELKSNYFDYWGQGTLVTVSS
VL: DIQMTQSPSSLSAFVGDRVTITCRASQPIDNYLNWYHQKPGKAPKLLIYAASRLQSGVPSRLSGSGFGTDFTLTISSLQPEDFGNYYCQQSYTVPYTFGGGTKVEIR
notes: tested as Fab (Ki,app) and as human IgG (SPR); the IgG is cleaved in HC CDR3 after WFR
B12: M29-E09 (Fab, V domains shown)
VH: EVQLLESGGGLVQPGGSLRLSCAASGFTFSWYEMGWVRQAPGKGLEWVSSIYSSGGGTMYADSVKGRFTISRDNSKNTLYLQMNSLRAEDTAVYYCARNPQYSGYDRSLSDGAFDIWGQGTMVTVSS
VL: QYELTQPPSVSVSPGQTATITCSGDNLGNKYNSWYQQKPGQSPLLVIYQDTKRPSAIPERFSGSNSGNTATLTISGTQAMDEADYYCQAWDGNVVFGGGTKLTVL
B13: M7-B04 (Fab, V domains shown)
VH: EVQLLESGGGLVQPGGSLRLSCAASGFTFSWYSMVWVRQAPGKGLEWVSSISPSGGLTNYADSVKGRFTISRDNSKNTLYLQMNSLRAEDTAVYYCARHTAARPFYYYYMDVWGKGTTVTVSS
VL: QSALTQPASVSGSPGQSITISCTGTNSDVGNYNLVSWYQQHPGEAPKLLIYEVNKRPSGVSNRFSGSKSGNTASLTISGLQAEDEADYLCCSYAGNRNFYVFGAGTKVTVL
B14: M146-E12 (Fab, V domains shown)
VH: EVQLLESGGGLVQPGGSLRLSCAASGFTFSRYIMHWVRQAPGKGLEWVSSISPSGGLTSYADSVKGRFTISRDNSKNTLYLQMNSLRAEDTAVYYCAREFENAYHYYYYGMDVWGQGTTVTVSS
VL: DIQMTQSPSSLSASVGDRVTITCRASGDIGNALGWYQQKPGKAPRLLISDASTLQSGVPLRFSGSGSGTEFTLTISSLQPEDFATYYCLQGYNYPRTFGQGTKLEIR
notes: claim 26 (viii) gives VL 265 and VH 266 instead
B15: M41-A11 (Fab, V domains shown)
VH: EVQLLESGGGLVQPGGSLRLSCAASGFTFSHYRMSWVRQAPGKGLEWVSSIYPSGGRTVYADSVKGRFTISRDNSKNTLYLQMNSLRAEDTAVYYCAKDKFEWRLLFRGIGNDAFDIWGQGTMVTVSS
VL: QSVLTQPPSVSVSPGQTASITCSGDKLGDKYTSWYQQRPGQSPVLVIYQDIKRPSGIPERFSGSNSGNTATLTISGTQAMDEADYYCQAWDSPNARVFGSGTKVTVL
B16: M145-D11 (Fab, V domains shown)
VH: EVQLLESGGGLVQPGGSLRLSCAASGFTFSHYRMSWVRQAPGKGLEWVSSIYPSGGRTVYADSVKGRFTISRDNSKNTLYLQMNSLRAEDTAVYYCAKDKFEWRLLFRGIGNDAFDIWGQGTMVTVSS
VL: QSVLTQPPSVSVSPGQTASITCSGDKLGDKYTSWYQQRPGQSPVLVIYQDIKRPSGIPERFSGSNSGNTATLTISGTQAMDEADYYCQAWDSPNARVFGSGTKVTVL
notes: also called 559A-M145-D11 (sFab); 559A-M0145-D11
B17: M11-E01 (Fab, V domains shown)
VH: EVQLLESGGGLVQPGGSLRLSCAASGFTFSTYEMYWVRQAPGKGLEWVSGIGSSGGMTMYADSVKGRFTISRDNSKNTLYLQMNSLRAEDTAMYYCAREQPGIAALQFWGQGTLVTVSS
VL: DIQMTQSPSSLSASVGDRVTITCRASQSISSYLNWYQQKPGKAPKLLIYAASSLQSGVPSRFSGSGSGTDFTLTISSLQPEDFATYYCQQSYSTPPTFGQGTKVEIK
B18: M11-E04 (Fab, V domains shown)
VH: EVQLLESGGGLVQPGGSLRLSCAASGFTFSMYHMNWVRQAPGKGLEWVSGIVSSGGVTFYADSVKGRFTISRDNSKNTLYLQMNSLRAEDTAVYYCARITTVTTGGAFDIWGQGTMVTVSS
VL: DIQMTQSPSSLSASVGDRVTITCRASQSISIYLTWYQHRPGKAPNLLIYGAATLQTGVPSRFSGSGSGTDFTLTIRGLQPEDFATYYCQQTFSLPRTFGQGTKLEIK
B19: M11-E05 (Fab, V domains shown)
VH: EVQLLESGGGLVQPGGSLRLSCAASGFTFSWYTMGWVRQAPGKGLEWVSWIYFGGLTTYADSVKGRFTISRDNSKNTLYLQMNSLRAEDTAVYYCARLGGPLDAFDIWGQGTMVTVSS
VL: DIQMTQSPSSLSASVGDTVTITCRTSQTINNYLNWYQQRPGEAPKVLIYATHTLESGVPSRFSGSGSGTDFTLTIGSLQPEDFATYYCQQSFAFPYTFGQGTKVEIT
B20: M11-E06 (Fab, V domains shown)
VH: EVQLLESGGGLVQPGGSLRLSCAASGFTFSQYAMHWVRQAPGKGLEWVSSIYPSGGFTLYADSVKGRFTISRDNSKNTLYLQMNSLRAEDTAMYYCARGGWLAGGELLNWGQGTLVTVSS
VL: DIQMTQSPSSLSASIGDRVTISCRASRGIGTYLNWYQQHAGKAPKLLIRAASSLETGVPPRFSGSGSGTDFTLTISSLQSDDFATYYCQESFTNVYNFGQGTKLEIK
B21: M11-G09 (Fab, V domains shown)
VH: EVQLLESGGGLVQPGGSLRLSCAASGFTFSLYNMTWVRQAPGKGLEWVSYIYPSGGGTHYADSVKGRFTISRDNSKNTLYLQMNSLRAEDTAVYYCARDTGFWSADAFDIWGQGTMVTVSS
VL: DIQMTQSPSSLSASVGDRVTITCRTSQGINHYLNWYQQKPGKAPKILVFAASELQTGVPSRFSGTGSGTSYTLTITSLQPEDVATYYCQQTYTSPYTFGQGTKLEVK

These binders were tested against T1, human plasma kallikrein (human, UniProt P03952 20-390; P03952 391-638) (assay: ELISA, biotinylated pKal signal over streptavidin background).
T1 construct: two disulfide-linked chains; NP_000883.2; also called pKal; hpKal
T1 sequence (P03952 20-390 limits assumed, chain 1 of 2): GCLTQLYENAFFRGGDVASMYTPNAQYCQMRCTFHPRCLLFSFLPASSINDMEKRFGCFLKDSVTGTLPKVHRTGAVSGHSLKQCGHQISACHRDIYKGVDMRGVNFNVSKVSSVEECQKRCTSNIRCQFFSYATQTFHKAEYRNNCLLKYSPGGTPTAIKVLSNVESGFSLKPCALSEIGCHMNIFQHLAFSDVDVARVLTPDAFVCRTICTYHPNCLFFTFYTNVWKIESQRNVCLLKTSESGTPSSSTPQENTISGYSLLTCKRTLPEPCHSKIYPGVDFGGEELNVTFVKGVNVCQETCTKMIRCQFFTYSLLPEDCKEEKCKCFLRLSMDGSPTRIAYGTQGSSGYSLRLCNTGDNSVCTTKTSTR
T1 sequence (P03952 391-638 limits assumed, chain 2 of 2): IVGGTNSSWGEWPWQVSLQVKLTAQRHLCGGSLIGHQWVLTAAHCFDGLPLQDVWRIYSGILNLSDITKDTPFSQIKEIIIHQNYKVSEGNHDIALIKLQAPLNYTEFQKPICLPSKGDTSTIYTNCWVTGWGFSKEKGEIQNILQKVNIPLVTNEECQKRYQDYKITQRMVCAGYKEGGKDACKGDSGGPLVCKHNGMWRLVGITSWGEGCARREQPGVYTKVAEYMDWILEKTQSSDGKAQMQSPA

Point of comparison: B8, “ELISA (T/B)” value 47.5. Against it:
- B1 — lower, 41.3
- B2 — lower, 4.5
- B3 — lower, 11.2
- B4 — lower, 33.5
- B5 — lower, 2.4
- B6 — lower, 11.1
- B7 — lower, 6.2
- B9 — lower, 19
- B10 — lower, 4
- B11 — lower, 29.9
- B12 — lower, 28.8
- B13 — lower, 4.1
- B14 — higher, 49.6
- B15 — lower, 28
- B16 — lower, 40

Target: T1, human plasma kallikrein
Assay: as above
Remark: another data set of the same source

Point of comparison: B20, “ELISA (T/B)” value 12.6. Against it:
- B17 — lower, 11.7
- B18 — higher, 43.2
- B19 — higher, 41.4
- B21 — higher, 23.6
